Laboratory results reported in article PMC5104691, “Crystal Structure of the Neuropilin-1 MAM Domain: Completing the Neuropilin-1 Ectodomain Picture” (Structure(London, England:1993), 2016).

Biological target: the molecule itself
Assay: ITC; dissociation by dilution: 900 μM MAM domain in the syringe titrated into buffer (20 mM Tris pH 8.0, 100 mM NaCl), one 0.4 μL and 19 injections of 2 μL, at 15°C and 20°C; dimer or oligomer to monomers

B1: MAM domain of human neuropilin-1 (residues 628-813), wild-type glycosylated (domain or fragment, UniProt O14786 628-813, looked up)
chain: ATEKPTVIDSTIQSEFPTYGFNCEFGWGSHKTFCHWEHDNHVQLKWSVLTSKTGPIQDHTGDGNFIYSQADENQKGKVARLVSPVVYSQNSAHCMTFWYHMSGSHVGTLRVKLRYQKPEEYDQLVWMAIGHQGDHWKEGRVLLHKSLKLYQVIFEGEIGKGNLGGIAVDDISINNHISQEDCAKPA
modifications: glycosylated at serine and threonine residues upstream of the predicted MAM domain (O-linked glycosylation sites)
notes: Neuropilin-1 (NRP1), human, amino acid residues 628-813 (linker region and MAM/c domain); also called NRP1 MAM domain; NRP1 MAM; source: FreeStyle HEK293-F cells, transfected, secreted
Kd: > 900 µM
